Series [1] relates to HeLa Kyoto. Description: thermal stability score vs G1/S (z-score of summed log2 fold changes over temperatures); higher = more thermally stable than in G1/S.
The test system of series [2] is HeLa Kyoto. Put plainly: solubility change mitosis vs G1/S (difference of NP-40 vs SDS log2 ratios) (log2 ratio difference); higher = more soluble in mitosis.
For series [3], the system named is HeLa Kyoto. Put plainly: melting temperature (median over replicates), in situ; higher = more thermally stable.
Series [4] deals with HeLa Kyoto. Put plainly: solubility in G1/S (NP-40 vs SDS abundance) (log2 ratio); higher = more soluble. The following applies: cell cycle stage: G1/S.
The mark [5] stands for this setting: cell cycle stage: early G1 (4.5 h after nocodazole release).
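For melting temperature (median over replicates), in situ in this document: HeLa Kyoto cells synchronized by double thymidine or nocodazole block, proteins quantified by TMT10plex mass spectrometry, three independent biological replicates.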
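For solubility change mitosis vs G1/S (difference of NP-40 vs SDS log2 ratios) in this document: synchronized HeLa Kyoto cells (double thymidine block for G1/S, nocodazole release for mitosis), protein amounts in NP-40 versus SDS lysates quantified by mass spectrometry, three biological replicates.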
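For solubility in G1/S (NP-40 vs SDS abundance) in this document: HeLa Kyoto cells arrested at G1/S by double thymidine block, proteins quantified by TMT10plex mass spectrometry in mild NP-40 versus SDS extracts, three biological replicates.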
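For thermal stability score vs G1/S (z-score of summed log2 fold changes over temperatures) in this document: synchronized HeLa Kyoto cells, proteins quantified by TMT10plex mass spectrometry, three biological replicates, mitosis taken 0.5 h after nocodazole release, G1/S directly after double thymidine block.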

For “MVLLHVLFEHAVGYALLALKEVEEISLLQPQVEESVLNLGKFHSIVRLVAFCPFASSQVALENANAVSEGVVHEDLRLLLETHLPSKKKKVLLGVGDPKIGAAIQEELGYNCQTGGVIAEILRGVRLHFHNLVKGLTDLSACKAQLGLGHSYSRAKVKFNVNRVDNMIIQSISLLDQLDKDINTFSMRVREWYGYHFPELVKIINDNATYCRLAQFIGNRRELNEDKLEKLEELTMDGAKAKAILDASRSSMGMDISAIDLINIESFSSRVVSLSEYRQSLHTYLRSKMSQVAPSLSALIGEAVGARLIAHAGSLTNLAKYPASTVQILGAEKALFRALKTRGNTPKYGLIFHSTFIGRAAAKNKGRISRYLANKCSIASRIDCFSEVPTSVFGEKLREQVEERLSFYETGEIPRKNLDVMKEAMVQAEEAAAEITRKLEKQEKKRLKKEKKRLAALALASSENSSSTPEECEEMSEKPKKKKKQKPQEVPQENGMEDPSISFSKPKKKKSFSKEELMSSDLEETAGSTSIPKRKKSTPKEETVNDPEEAGHRSGSKKKRKFSKEEPVSSGPEEAVGKSSSKKKKKFHKASQED [NOP56]”, the thermal stability score was -2.17 in series [1] (setting [5]) and -6.89 in series [1] (cell cycle stage: mitosis). The “solubility change mitosis (log2)” value in series [2] came out at 1.28. The melting temperature worked out at 54.6 °C in series [3] (cell cycle stage: G1/S) and 52 °C in series [3] (cell cycle stage: mitosis). Besides, the “solubility in G1/S (log2)” value in series [4] was -2.05.
With “MVLLKEYRVILPVSVDEYQVGQLYSVAEASKNETGGGEGVEVLVNEPYEKDGEKGQYTHKIYHLQSKVPTFVRMLAPEGALNIHEKAWNAYPYCRTVITNEYMKEDFLIKIETWHKPDLGTQENVHKLEPEAWKHVEAVYIDIADRSQVLSKDYKAEEDPAKFKSIKTGRGPLGPNWKQELVNQKDCPYMCAYKLVTVKFKWWGLQNKVENFIHKQERRLFTNFHRQLFCWLDKWVDLTMDDIRRMEEETKRQLDEMRQKDPVKGMTADD [PITPNA]”, the thermal stability score in series [1] (setting [5]) is -1.26; in series [1] (cell cycle stage: mitosis) it was -1.48. Further, the “solubility change mitosis (log2)” value in series [2] is -0.0595. Further, the melting temperature in series [3] (cell cycle stage: G1/S) turned out to be 54.9 °C; in series [3] (cell cycle stage: mitosis), 55.5 °C. Besides, in series [4], the “solubility in G1/S (log2)” value is 0.15.
For “MVLNSLDKMIQLQKNTANIRNICVLAHVDHGKTTLADCLISSNGIISSRLAGKLRYMDSREDEQIRGITMKSSAISLHYATGNEEYLINLIDSPGHVDFSSEVSTAVRICDGCIIVVDAVEGVCPQTQAVLRQAWLENIRPVLVINKIDRLIVELKFTPQEAYSHLKNILEQINALTGTLFTSKVLEERAERETESQVNPNSEQGEQVYDWSTGLEDTDDSHLYFSPEQGNVVFTSAIDGWGFGIEHFARIYSQKIGIKKEVLMKTLWGDYYINMKAKKIMKGDQAKGKKPLFVQLILENIWSLYDAVLKKDKDKIDKIVTSLGLKIGAREARHSDPKVQINAICSQWLPISHAVLAMVCQKLPSPLDITAERVERLMCTGSQTFDSFPPETQALKAAFMKCGSEDTAPVIIFVSKMFAVDAKALPQNKPRPLTQEEIAQRRERARQRHAEKLAAAQGQAPLEPTQDGSAIETCPKGEEPRGDEQQVESMTPKPVLQEENNQESFIAFARVFSGVARRGKKIFVLGPKYSPLEFLRRVPLGFSAPPDGLPQVPHMAYCALENLYLLMGRELEYLEEVPPGNVLGIGGLQDFVLKSATLCSLPSCPPFIPLNFEATPIVRVAVEPKHPSEMPQLVKGMKLLNQADPCVQILIQETGEHVLVTAGEVHLQRCLDDLKERFAKIHISVSEPIIPFRETITKPPKVDMVNEEIGKQQKVAVIHQMKEDQSKIPEGIQVDSDGLITITTPNKLATLSVRAMPLPEEVTQILEENSDLIRSMEQLTSSLNEGENTHMIHQKTQEKIWEFKGKLEQHLTGRRWRNIVDQIWSFGPRKCGPNILVNKSEDFQNSVWTGPADKASKEASRYRDLGNSIVSGFQLATLSGPMCEEPLMGVCFVLEKWDLSKFEEQGASDLAKEGQEENETCSGGNENQELQDGCSEAFEKRTSQKGESPLTDCYGPFSGQLIATMKEACRYALQVKPQRLMAAMYTCDIMATGDVLGRVYAVLSKREGRVLQEEMKEGTDMFIIKAVLPVAESFGFADEIRKRTSGLASPQLVFSHWEIIPSDPFWVPTTEEEYLHFGEKADSENQARKYMNAVRKRKGLYVEEKIVEHAEKQRTLSKNK [EFTUD1]”, the thermal stability score was 0.0185 in series [1] (setting [5]) and -0.212 in series [1] (cell cycle stage: mitosis). Also, in series [2], the “solubility change mitosis (log2)” value was -0.154. For the same sequence, the melting temperature in series [3] (cell cycle stage: G1/S) amounted to 50.3 °C; in series [3] (cell cycle stage: mitosis), 50 °C. Also, the “solubility in G1/S (log2)” value in series [4] is -0.156.
With “MVLTLGESWPVLVGRRFLSLSAADGSDGSHDSWDVERVAEWPWLSGTIRAVSHTDVTKKDLKVCVEFDGESWRKRRWIEVYSLLRRAFLVEHNLVLAERKSPEISERIVQWPAITYKPLLDKAGLGSITSVRFLGDQQRVFLSKDLLKPIQDVNSLRLSLTDNQIVSKEFQALIVKHLDESHLLKGDKNLVGSEVKIYSLDPSTQWFSATVINGNPASKTLQVNCEEIPALKIVDPSLIHVEVVHDNLVTCGNSARIGAVKRKSSENNGTLVSKQAKSCSEASPSMCPVQSVPTTVFKEILLGCTAATPPSKDPRQQSTPQAANSPPNLGAKIPQGCHKQSLPEEISSCLNTKSEALRTKPDVCKAGLLSKSSQIGTGDLKILTEPKGSCTQPKTNTDQENRLESVPQALTGLPKECLPTKASSKAELEIANPPELQKHLEHAPSPSDVSNAPEVKAGVNSDSPNNCSGKKVEPSALACRSQNLKESSVKVDNESCCSRSNNKIQNAPSRKSVLTDPAKLKKLQQSGEAFVQDDSCVNIVAQLPKCRECRLDSLRKDKEQQKDSPVFCRFFHFRRLQFNKHGVLRVEGFLTPNKYDNEAIGLWLPLTKNVVGIDLDTAKYILANIGDHFCQMVISEKEAMSTIEPHRQVAWKRAVKGVREMCDVCDTTIFNLHWVCPRCGFGVCVDCYRMKRKNCQQGAAYKTFSWLKCVKSQIHEPENLMPTQIIPGKALYDVGDIVHSVRAKWGIKANCPCSNRQFKLFSKPASKEDLKQTSLAGEKPTLGAVLQQNPSVLEPAAVGGEAASKPAGSMKPACPASTSPLNWLADLTSGNVNKENKEKQPTMPILKNEIKCLPPLPPLSKSSTVLHTFNSTILTPVSNNNSGFLRNLLNSSTGKTENGLKNTPKILDDIFASLVQNKTTSDLSKRPQGLTIKPSILGFDTPHYWLCDNRLLCLQDPNNKSNWNVFRECWKQGQPVMVSGVHHKLNSELWKPESFRKEFGEQEVDLVNCRTNEIITGATVGDFWDGFEDVPNRLKNEKEPMVLKLKDWPPGEDFRDMMPSRFDDLMANIPLPEYTRRDGKLNLASRLPNYFVRPDLGPKMYNAYGLITPEDRKYGTTNLHLDVSDAANVMVYVGIPKGQCEQEEEVLKTIQDGDSDELTIKRFIEGKEKPGALWHIYAAKDTEKIREFLKKVSEEQGQENPADHDPIHDQSWYLDRSLRKRLHQEYGVQGWAIVQFLGDVVFIPAGAPHQVHNLYSCIKVAEDFVSPEHVKHCFWLTQEFRYLSQTHTNHEDKLQVKNVIYHAVKDAVAMLKASESSFGKP [KDM3A]”, the thermal stability score was -0.474 in series [1] (setting [5]) and 0.304 in series [1] (cell cycle stage: mitosis). The “solubility change mitosis (log2)” value in series [2] is -0.158. Also, the melting temperature in series [3] (cell cycle stage: G1/S) is 48.6 °C; in series [3] (cell cycle stage: mitosis) it was 50.4 °C. The “solubility in G1/S (log2)” value in series [4] amounted to 0.0198.
For “MVPLVAVVSGPRAQLFACLLRLGTQQVGPLQLHTGASHAARNHYEVLVLGGGSGGITMAARMKRKVGAENVAIVEPSERHFYQPIWTLVGAGAKQLSSSGRPTASVIPSGVEWIKARVTELNPDKNCIHTDDDEKISYRYLIIALGIQLDYEKIKGLPEGFAHPKIGSNYSVKTVEKTWKALQDFKEGNAIFTFPNTPVKCAGAPQKIMYLSEAYFRKTGKRSKANIIFNTSLGAIFGVKKYADALQEIIQERNLTVNYKKNLIEVRADKQEAVFENLDKPGETQVISYEMLHVTPPMSPPDVLKTSPVADAAGWVDVDKETLQHRRYPNVFGIGDCTNLPTSKTAAAVAAQSGILDRTISVIMKNQTPTKKYDGYTSCPLVTGYNRVILAEFDYKAEPLETFPFDQSKERLSMYLMKADLMPFLYWNMMLRGYWGGPAFLRKLFHLGMS [SQRDL]”, the thermal stability score in series [1] (setting [5]) was 0.51; in series [1] (cell cycle stage: mitosis), -4.29. In addition, the “solubility change mitosis (log2)” value in series [2] was -0.0579. For the same sequence, the melting temperature in series [3] (cell cycle stage: G1/S) and in series [3] (cell cycle stage: mitosis) was 54.3 °C throughout. Further, the “solubility in G1/S (log2)” value in series [4] stood at 0.148.
As to “MVPRLLLRAWPRGPAVGPGAPSRPLSAGSGPGQYLQRSIVPTMHYQDSLPRLPIPKLEDTIRRYLSAQKPLLNDGQFRKTEQFCKSFENGIGKELHEQLVALDKQNKHTSYISGPWFDMYLSARDSVVLNFNPFMAFNPDPKSEYNDQLTRATNMTVSAIRFLKTLRAGLLEPEVFHLNPAKSDTITFKRLIRFVPSSLSWYGAYLVNAYPLDMSQYFRLFNSTRLPKPSRDELFTDDKARHLLVLRKGNFYIFDVLDQDGNIVSPSEIQAHLKYILSDSSPAPEFPLAYLTSENRDIWAELRQKLMSSGNEESLRKVDSAVFCLCLDDFPIKDLVHLSHNMLHGDGTNRWFDKSFNLIIAKDGSTAVHFEHSWGDGVAVLRFFNEVFKDSTQTPAVTPQSQPATTDSTVTVQKLNFELTDALKTGITAAKEKFDATMKTLTIDCVQFQRGGKEFLKKQKLSPDAVAQLAFQMAFLRQYGQTVATYESCSTAAFKHGRTETIRPASVYTKRCSEAFVREPSRHSAGELQQMMVECSKYHGQLTKEAAMGQGFDRHLFALRHLAAAKGIILPELYLDPAYGQINHNVLSTSTLSSPAVNLGGFAPVVSDGFGVGYAVHDNWIGCNVSSYPGRNAREFLQCVEKALEDMFDALEGKSIKS [CPT2]”, the values for the thermal stability score in series [1] (setting [5]) and in series [1] (cell cycle stage: mitosis) were -0.368 and 0.841, respectively. In addition, the “solubility change mitosis (log2)” value in series [2] was -0.135. In addition, the melting temperature in series [3] (cell cycle stage: G1/S) and in series [3] (cell cycle stage: mitosis) was 50 °C each time. Also, in series [4], the “solubility in G1/S (log2)” value came to 0.115.

(Values after the supplement of paper PMC5998384.)
